One molecule from paper PMC8844826 (iScience, 2022) can be followed below.

Ends that are not written are not given here. TAMRA = 5 (and 6)-carboxytetramethylrhodamine

Experiment [1] concerns the target T1, full length PSD-95 (FL-PSD-95, 1-724) (human, UniProt P78352 1-724).
T1 construct: construct 32M3C-PSD-95 FL 1-724 from Zeng et al. (2016a); A PreScission 3C site follows the tags; For the arrays 0.1 uM of 1 uM was labelled with Alexa 633 (maleimide); also called PSD protein 95; 32M3C-PSD-95 FL; source: E. coli BL21-DE3-pLysS, purified (HisTrap, SEC)
The experiment in a line: fluorescence polarisation; saturation binding: increasing protein, fixed fluorescently labeled peptide; 50 mM Tris (pH 8.0), 300 mM NaCl, 10 mM EDTA, 1 mM TCEP; 20 min on ice. To be noted: both partners purified.

The next experiment concerns the target T2, GST-Arc 195-364 (rat) (rat, UniProt Q63053 195-364).
T2 construct: rat Arc residues 195-364, Uniprot Q63053; GST is followed by a thrombin and a factor Xa site; the protein was eluted with glutathione and no cleavage is described; also called pGEX4T1-Arc 195-364; source: E. coli BL21-DE3-pLysS, purified (Glutathione Sepharose, SEC)
T2 sequence (looked up): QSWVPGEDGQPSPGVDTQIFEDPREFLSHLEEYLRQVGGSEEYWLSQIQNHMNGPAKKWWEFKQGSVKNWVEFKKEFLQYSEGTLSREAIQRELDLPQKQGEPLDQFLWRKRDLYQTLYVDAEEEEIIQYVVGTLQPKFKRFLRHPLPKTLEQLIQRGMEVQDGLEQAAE
The description is as above. To be noted: both partners purified.

T1 sequence (P78352 whole entry): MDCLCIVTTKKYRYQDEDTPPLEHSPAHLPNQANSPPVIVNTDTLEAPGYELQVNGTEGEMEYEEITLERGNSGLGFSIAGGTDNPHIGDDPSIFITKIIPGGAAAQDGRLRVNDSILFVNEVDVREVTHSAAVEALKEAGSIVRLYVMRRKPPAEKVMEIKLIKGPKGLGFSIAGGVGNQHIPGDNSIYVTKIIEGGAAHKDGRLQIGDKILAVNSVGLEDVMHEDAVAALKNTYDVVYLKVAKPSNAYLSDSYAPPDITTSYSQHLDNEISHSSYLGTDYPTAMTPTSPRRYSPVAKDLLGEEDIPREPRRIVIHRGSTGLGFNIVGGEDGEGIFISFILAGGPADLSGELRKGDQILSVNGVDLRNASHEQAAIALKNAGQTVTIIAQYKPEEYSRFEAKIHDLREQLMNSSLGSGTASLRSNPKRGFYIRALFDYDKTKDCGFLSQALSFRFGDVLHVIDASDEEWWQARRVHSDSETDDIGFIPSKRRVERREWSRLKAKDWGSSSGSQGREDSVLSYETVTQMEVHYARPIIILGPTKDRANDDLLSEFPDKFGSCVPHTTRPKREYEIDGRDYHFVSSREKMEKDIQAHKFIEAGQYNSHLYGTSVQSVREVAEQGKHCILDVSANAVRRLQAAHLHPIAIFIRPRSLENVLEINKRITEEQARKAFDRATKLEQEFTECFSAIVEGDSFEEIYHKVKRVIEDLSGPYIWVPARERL

B1: TAMRA-G-A222ITRIPSYRYRYQRR236 (fluorescently labeled Stg A222-R236 peptide) (peptide)
peptide: {TAMRA}-GAITRIPSYRYRYQRR
notes: added glycine between TAMRA and A222; also called TMR labeled Stg_(A222-R236); source: synthetic peptide (in-house)
Consider B1, for which the Kd (as a rule, the equilibrium constant for the complex coming apart) turned out to be 14.9 ± 3 µM in experiment [1] and 8.37 ± 1.25 µM in the experiment with GST-Arc 195-364 (rat).
